Data on eight molecules can be found in PMC10658565, “Polymorphic nanobody crystals as long‐acting intravitreal therapy for wet age‐related macular degeneration” (Bioengineering & Translational Medicine, 2023).

The chains are these.
B1: mNb‐WT (VHH)
VHH: DVQLVESGGGLVQPGGSLRLSCAASGRTFSSYSMGWFRQAPGKEREFVVAISKGGYKYDAVSLEGRFTISRDNAKNTVYLQINSLRPEDTAVYYCASSRAYGSSRLRLADTYEYWGQGTLVTVSS
notes: also in PDB 8IIU (crystal of the protein without label); The 6xHis-labelled form was used for the ELISA; crystals were grown from protein without label; also called model anti‐VEGF nanobody; model nanobody mNb‐WT
B2: Mutant 3 (K44A/E45A mutation) (VHH)
VHH: DVQLVESGGGLVQPGGSLRLSCAASGRTFSSYSMGWFRQAPGAAREFVVAISKGGYKYDAVSLEGRFTISRDNAKNTVYLQINSLRPEDTAVYYCASSRAYGSSRLRLADTYEYWGQGTLVTVSS
notes: as the chain of m1 with K44A and E45A
B3: Mutant 7 (Q14N mutation) (VHH)
VHH: DVQLVESGGGLVNPGGSLRLSCAASGRTFSSYSMGWFRQAPGKEREFVVAISKGGYKYDAVSLEGRFTISRDNAKNTVYLQINSLRPEDTAVYYCASSRAYGSSRLRLADTYEYWGQGTLVTVSS
notes: as the chain of m1 with Q14N; also in PDB 8IJS (crystal of the protein without label)
B4: Mutant 6 (S8A mutation) (VHH)
VHH: DVQLVEAGGGLVQPGGSLRLSCAASGRTFSSYSMGWFRQAPGKEREFVVAISKGGYKYDAVSLEGRFTISRDNAKNTVYLQINSLRPEDTAVYYCASSRAYGSSRLRLADTYEYWGQGTLVTVSS
notes: as the chain of m1 with S8A
B5: Mutant 5 (Q118N mutation) (VHH)
VHH: DVQLVESGGGLVQPGGSLRLSCAASGRTFSSYSMGWFRQAPGKEREFVVAISKGGYKYDAVSLEGRFTISRDNAKNTVYLQINSLRPEDTAVYYCASSRAYGSSRLRLADTYEYWGNGTLVTVSS
notes: as the chain of m1 with Q118N
B6: Mutant 1 (K44A mutation) (VHH)
VHH: DVQLVESGGGLVQPGGSLRLSCAASGRTFSSYSMGWFRQAPGAEREFVVAISKGGYKYDAVSLEGRFTISRDNAKNTVYLQINSLRPEDTAVYYCASSRAYGSSRLRLADTYEYWGQGTLVTVSS
notes: as the chain of m1 with K44A
B7: Mutant 4 (Y95F mutation) (VHH)
VHH: DVQLVESGGGLVQPGGSLRLSCAASGRTFSSYSMGWFRQAPGKEREFVVAISKGGYKYDAVSLEGRFTISRDNAKNTVYLQINSLRPEDTAVYFCASSRAYGSSRLRLADTYEYWGQGTLVTVSS
notes: as the chain of m1 with Y95F
B8: Mutant 2 (E45A mutation) (VHH)
VHH: DVQLVESGGGLVQPGGSLRLSCAASGRTFSSYSMGWFRQAPGKAREFVVAISKGGYKYDAVSLEGRFTISRDNAKNTVYLQINSLRPEDTAVYYCASSRAYGSSRLRLADTYEYWGQGTLVTVSS
notes: as the chain of m1 with E45A; also in PDB 8IJZ (crystal of the protein without label)

T1 sequence (P15692 whole entry, looked up, change not shown): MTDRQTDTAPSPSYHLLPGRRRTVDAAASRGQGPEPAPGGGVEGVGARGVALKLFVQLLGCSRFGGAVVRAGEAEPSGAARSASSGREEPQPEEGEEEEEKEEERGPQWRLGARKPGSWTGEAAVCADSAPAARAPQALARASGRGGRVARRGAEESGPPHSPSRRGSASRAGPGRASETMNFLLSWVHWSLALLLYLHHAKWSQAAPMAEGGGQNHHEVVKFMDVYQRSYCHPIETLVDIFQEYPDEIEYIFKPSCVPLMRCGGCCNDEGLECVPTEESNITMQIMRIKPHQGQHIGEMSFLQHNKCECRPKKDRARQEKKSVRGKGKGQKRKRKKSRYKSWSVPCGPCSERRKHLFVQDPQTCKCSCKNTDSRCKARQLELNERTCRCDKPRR

This assay has as its target T1, recombinant VEGF‐A165 protein (Homo sapiens (assumed), UniProt P15692-4, strain).
T1 construct: also called vascular endothelial growth factor; source: bought: SinoBiological Co. Ltd. (Cat: HPLC‐11066‐HNAH)
Put plainly: ELISA; VEGF‐A165 coated on high adsorption plates overnight at 4°C; blocked with 5% skim milk; linear gradient of 6xHis-labelled nanobodies, 1 h at 37°C; detected with HRP‐conjugated 6xHis tag antibody, TMB, 450 nm. The note with it: both partners purified. On the technique in general: An ELISA detects its analyte on a solid surface through an enzyme-linked reagent.
For B1, the binding result is reported as “binds”.
For B2, the binding result is “binds”.
The result for B3 reads “binds”.
The result for B4 reads “binds”; that for B5, “binds”.
The same measure for B6: “binds”.
B7: the binding result is “binds”.
The result for B8 reads “binds”.
